Read-outs that look alike come from different tables or passages of the source.
Key:
Assay in all cases: SPR
[1] = target: recombinant matrilin-3 A-domain (human) (UniProt O15232)
[2] = target: T1, full-length type IX collagen (human, UniProt P20849 24-921; Q14055 24-689; Q14050 26-684)
[3] = target: T1, full-length type IX collagen; remark: listed apart in the source

vitreous form of human type IX collagen (from UniProt Q14055 24-689; Q14050 26-684) (complex)
Kd [1]: 3.25 nM

B1: full-length matrilin-3 (natural protein, UniProt O15232 29-486, looked up)
chain: DPVARPGFRRLETRGPGGSPGRRPSPAAPDGAPASGTSEPGRARGAGVCKSRPLDLVFIIDSSRSVRPLEFTKVKTFVSRIIDTLDIGPADTRVAVVNYASTVKIEFQLQAYTDKQSLKQAVGRITPLSTGTMSGLAIQTAMDEAFTVEAGAREPSSNIPKVAIIVTDGRPQDQVNEVAARAQASGIELYAVGVDRADMASLKMMASEPLEEHVFYVETYGVIEKLSSRFQETFCALDPCVLGTHQCQHVCISDGEGKHHCECSQGYTLNADKKTCSALDRCALNTHGCEHICVNDRSGSYHCECYEGYTLNEDRKTCSAQDKCALGTHGCQHICVNDRTGSHHCECYEGYTLNADKKTCSVRDKCALGSHGCQHICVSDGAASYHCDCYPGYTLNEDKKTCSATEEARRLVSTEDACGCEATLAFQDKVSSYLQRLNTKLDDILEKLKINEYGQIHR
Kd [2]: 1.5 nM

B2: recombinant matrilin-3 A-domain (domain or fragment, human, UniProt O15232 76-263, looked up)
chain: VCKSRPLDLVFIIDSSRSVRPLEFTKVKTFVSRIIDTLDIGPADTRVAVVNYASTVKIEFQLQAYTDKQSLKQAVGRITPLSTGTMSGLAIQTAMDEAFTVEAGAREPSSNIPKVAIIVTDGRPQDQVNEVAARAQASGIELYAVGVDRADMASLKMMASEPLEEHVFYVETYGVIEKLSSRFQETFC
Kd [3]: 1.37 nM
